Reference: publication PMC8060857

Target: HR-N1, SARS S protein amino acids 882-973 (SARS-CoV (Urbani strain)) (UniProt P59594)
Assay: AUC

Substance: HR-N1, SARS S protein amino acids 882-973 (from UniProt P59594 882-973) (domain or fragment)
- stoichiometry N: 4
